Laboratory results reported in IntAct's records for PubMed 21642953.

Key:
dcc_human DCC = dcc_human DCC (UniProt P43146)
tbb2b_human TUBB2B = tbb2b_human TUBB2B (UniProt Q9BVA1)
Chain of tbb2b_human TUBB2B (Q9BVA1 whole entry): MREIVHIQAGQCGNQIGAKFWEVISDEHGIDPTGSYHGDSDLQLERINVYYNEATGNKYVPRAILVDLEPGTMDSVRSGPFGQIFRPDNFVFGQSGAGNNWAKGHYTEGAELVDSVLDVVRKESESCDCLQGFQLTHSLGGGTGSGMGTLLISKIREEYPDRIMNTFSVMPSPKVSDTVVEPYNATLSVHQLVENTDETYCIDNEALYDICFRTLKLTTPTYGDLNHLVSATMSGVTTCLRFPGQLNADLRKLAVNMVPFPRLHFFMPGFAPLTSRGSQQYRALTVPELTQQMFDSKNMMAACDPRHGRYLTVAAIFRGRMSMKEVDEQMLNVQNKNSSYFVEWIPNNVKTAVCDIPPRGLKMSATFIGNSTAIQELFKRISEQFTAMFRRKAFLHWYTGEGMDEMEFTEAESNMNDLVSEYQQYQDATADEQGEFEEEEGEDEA

Chain of dcc_human DCC (P43146 whole entry): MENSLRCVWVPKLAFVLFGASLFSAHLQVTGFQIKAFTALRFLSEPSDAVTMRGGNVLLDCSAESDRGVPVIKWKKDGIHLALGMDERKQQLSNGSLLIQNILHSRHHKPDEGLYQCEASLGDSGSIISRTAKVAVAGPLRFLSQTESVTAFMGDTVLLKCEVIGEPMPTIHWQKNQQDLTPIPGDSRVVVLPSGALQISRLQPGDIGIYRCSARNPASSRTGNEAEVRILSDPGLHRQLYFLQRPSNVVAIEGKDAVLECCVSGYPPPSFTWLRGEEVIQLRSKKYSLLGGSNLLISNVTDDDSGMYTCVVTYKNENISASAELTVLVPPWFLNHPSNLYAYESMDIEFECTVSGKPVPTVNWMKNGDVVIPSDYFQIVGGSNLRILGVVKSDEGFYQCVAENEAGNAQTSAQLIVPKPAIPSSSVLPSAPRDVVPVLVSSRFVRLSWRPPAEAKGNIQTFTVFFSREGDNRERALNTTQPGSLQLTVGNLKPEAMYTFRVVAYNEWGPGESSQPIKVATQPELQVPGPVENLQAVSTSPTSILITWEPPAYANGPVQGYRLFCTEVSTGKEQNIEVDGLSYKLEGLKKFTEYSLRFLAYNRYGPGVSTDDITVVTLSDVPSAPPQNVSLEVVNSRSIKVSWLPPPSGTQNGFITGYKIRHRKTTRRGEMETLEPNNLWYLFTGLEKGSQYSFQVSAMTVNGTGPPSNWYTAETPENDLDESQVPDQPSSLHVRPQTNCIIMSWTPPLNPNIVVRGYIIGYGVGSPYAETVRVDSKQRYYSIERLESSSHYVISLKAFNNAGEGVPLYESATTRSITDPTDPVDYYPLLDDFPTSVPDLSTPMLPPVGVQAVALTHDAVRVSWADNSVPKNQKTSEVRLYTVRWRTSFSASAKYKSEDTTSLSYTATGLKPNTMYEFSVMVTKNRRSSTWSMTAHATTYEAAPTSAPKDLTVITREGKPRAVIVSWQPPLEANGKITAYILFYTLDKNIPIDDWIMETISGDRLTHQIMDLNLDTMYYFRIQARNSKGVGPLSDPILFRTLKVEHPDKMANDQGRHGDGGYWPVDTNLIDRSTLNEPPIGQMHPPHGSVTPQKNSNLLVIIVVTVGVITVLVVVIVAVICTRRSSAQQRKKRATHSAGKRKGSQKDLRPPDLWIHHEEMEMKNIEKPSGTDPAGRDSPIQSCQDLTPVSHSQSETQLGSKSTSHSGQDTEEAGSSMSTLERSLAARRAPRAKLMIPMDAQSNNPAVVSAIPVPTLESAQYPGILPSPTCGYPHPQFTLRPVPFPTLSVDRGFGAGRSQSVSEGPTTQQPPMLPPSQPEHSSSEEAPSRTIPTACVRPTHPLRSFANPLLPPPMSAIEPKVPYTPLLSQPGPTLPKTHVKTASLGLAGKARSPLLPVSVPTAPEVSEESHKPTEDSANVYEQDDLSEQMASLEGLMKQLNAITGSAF

Substance	effect of a mutation on the interaction (dcc_human DCC)	effect of a mutation on the interaction (tbb2b_human TUBB2B)
Unconventional myosin-X (Homo sapiens), Q9HD67 F2002K	disrupting interaction	
Unconventional myosin-X (Homo sapiens), Q9HD67 K1647D		disrupting interaction
Unconventional myosin-X (Homo sapiens), Q9HD67 K1650D		disrupting interaction
